# Test results: article PMC3600089 (ACS chemical biology, 2012)
# B1: GST-TACC3-CT E629A (domain or fragment)
# chain: not shown
# Columns and labels:
# [1] = molecular target: T1, His-ARNT PAS-B (human ARNT residues 356-470) (human, UniProt P27540 356-470); assay: pull-down
# ARNT2 PAS-B E372A = ARNT2 PAS-B E372A (human, UniProt Q9HBZ2 330-444, E372A); assay: pull-down
# [2] = molecular target: His-ARNT2 PAS-B (human ARNT2 residues 330-444) (human, UniProt Q9HBZ2 330-444); assay: pull-down
# ARNT2 PAS-B K391A = ARNT2 PAS-B K391A (human, UniProt Q9HBZ2 330-444, K391A); assay: pull-down
# [3] = molecular target: T1, His-ARNT PAS-B (human ARNT residues …); assay: AlphaScreen or HTRF
# GST-TACC3-CT E629A = molecular target: B1; assay: AlphaScreen or HTRF
binder,measurement,setting,value
GST-TACC3-CT (murine TACC3 residues 561-631) (domain or fragment) not shown,binding result,[1],binds
same,binding result,ARNT2 PAS-B E372A,binds
same,binding result,[2],binds
same,binding result,ARNT2 PAS-B K391A,binds
B1,binding result,[3],binds
untagged ARNT PAS-B (domain or fragment) not shown,IC50,GST-TACC3-CT E629A,2000 to 3000 nM
